Holding throughout (assay type): cell-based, human
For assay [1], the system named is leukemic myeloblasts and healthy BMMb. Put plainly: SCNP in AML patients aged >60 years (ECOG E3999), FLT3-ITD vs FLT3-WT vs healthy BMMb (Example 12). Conditions: FLT3-ITD blasts compared to BMMb. The text has this:
Modulated single cell network profiling (SCNP) was used to evaluate the activation state of intracellular signaling molecules (i.e. nodes), including phosphorylated (p)-Akt, p-Erk, p-S6, p-Stat5 and cleaved-PARP, at baseline and after treatment with specific modulators [including cytokines (such as IL-27) growth factors (such as FLT3 ligand) and drugs (such a cytosine arabinoside)] in 7 healthy bone marrow mononuclear blasts (BMMb) and leukemic myeloblasts, characterized for FLT3 receptor mutation status, from 44 AML patients (38 FLT-WT and 6 FLT3-ITD), aged>60 years (ECOG trial E3999). A total of 64 node-metrics were analyzed.

The test system of another assay is AML blasts. In words: SCNP / phospho-flow modulated signaling assay, AML study No. 1 (PBMC at diagnosis, CR vs NR).
The subject of assay [2] is healthy bone marrow myeloblast (BMMC). In words: FLT3L-induced signaling in healthy control BMMC myeloblasts (Example 9). The following applies: BMMC samples. The text has this:
This example identifies intracellular signaling pathways associated with FLT3 ITD in two independent cohorts of diagnostic AML samples that serve as an improvement over current clinical tools in the identification of clinically meaningful altered FLT 3 and has implications for cohort selection in the development of FLT3 inhibitors. The two cohorts of data were further analyzed to investigate the differences in signaling between FLT-WT and FLT-ITD samples. The first cohort of data (“study 1”) comprised the 34 samples from University Health Network outlined in Table 16 and Table 19. The second cohort of data (“study 2”) comprised an 83 sample subset of MD Anderson Cancer Center data outlined in Table 16 (and Table 19). The 83 sample subset was selected based on known FLT3 mutation status. Both cohorts of data were used to investigate differences in FLT3 signaling between leukemic blasts and control data.
In order to further characterize wild-type FLT receptor signaling in AML, we compared FLT3L-induced signaling in the myeloblast population of control BMMC samples with FLT3L-induced signaling in the leukemic blast population of FLT3-WT AML samples.

Where [3] appears, read: Study No. 1 sensitivity analysis, CR samples.
[4] abbreviates: Study No. 1 sensitivity analysis, NR samples incl. CRp.

B1: IL-27: interleukin-27 (protein, UniProt Q8NEV9 29-243; Q14213 21-229, looked up)
Interleukin-27 subunit alpha: FPRPPGRPQLSLQELRREFTVSLHLARKLLSEVRGQAHRFAESHLPGVNLYLLPLGEQLPDVSLTFQAWRRLSDPERLCFISTTLQPFHALLGGLGTQGRWTNMERMQLWAMRLDLRDLQRHLRFQVLAAGFNLPEEEEEEEEEEEEERKGLLPGALGSALQGPAQVSWPQLLSTYRLLHSLELVLSRAVRELLLLSKAGHSVWPLGFPTLSPQP
Interleukin-27 subunit beta: RKGPPAALTLPRVQCRASRYPIAVDCSWTLPPAPNSTSPVSFIATYRLGMAARGHSWPCLQQTPTSTSCTITDVQLFSMAPYVLNVTAVHPWGSSSSFVPFITEHIIKPDPPEGVRLSPLAERQLQVQWEPPGSWPFPEIFSLKYWIRYKRQGAARFHRVGPIEATSFILRAVRPRARYYVQVAAQDLTDYGELSDWSLPATATMSLGK
As to B1, in assay [1], the “IL-27 induced activation of the Jak/Stat pathway” value was “minimal IL-27 induced activation of the Jak/Stat pathway”. Moreover, in the assay on AML blasts (setting [3]), the “Mean Value of CRs, p-CREB Total Phospho” value stood at 1.25; the “Mean Value of CRs, p-Stat1 Total Phospho” value is given as 0.39; the “Mean Value of CRs, p-Stat3 Total Phospho” value is reported as 1.01. In the assay with AML blasts (setting [4]), the “Mean Value of NRs, p-CREB Total Phospho” value came to 2.36; the “Mean Value of NRs, p-Stat1 Total Phospho” value is 0.81; the “Mean Value of NRs, p-Stat3 Total Phospho” value stood at 1.85. The “IL-27-induced levels of total p-Stat1 and p-Stat3” value in the assay with AML blasts (staurosporine resistant samples vs other apoptosis categories) is “all greater in this apoptotic sub-category”.

B2: FLT-3L: fms-like tyrosine kinase receptor-3 ligand (protein, UniProt P49771 27-235, looked up)
Fms-related tyrosine kinase 3 …: TQDCSFQHSPISSDFAVKIRELSDYLLQDYPVTVASNLQDEELCGGLWRLVLAQRWMERLKTVAGSKMQGLLERVNTEIHFVTKCAFQPPPSCLRFVQTNISRLLQETSEQLVALKPWITRQNFSRCLELQCQPDSSTLPPPWSPRPLEATAPTAPQPPLLLLLLLPVGLLLLAAAWCLHWQRTRRRTPRPGEQVPPVPSPQDLLLVEH
Consider B2, for which, in assay [2], the “FLT3L activation of p-Akt and p-S6 at later time point” value is recorded as “largely diminished by 15 minutes”; the “range of FLT3L-induced S6 signaling” value was “narrow range of S6 signaling”. In assay [2] (early time points (4 minutes, 10 minutes)), the “FLT3L-induced p-Akt and p-S6” value was “increased levels of p-Akt and p-S6”. For the same molecule, in assay [1], the “FLT3 ligand-induced pathway activation” value is “decreased FLT3 ligand-induced activation of P13K and Raf/Ras/Erk pathways”. For the same molecule, in the assay on AML blasts (setting [3]), the “Mean Value of CRs, p-Akt Fold” value came to 0.10; the “Mean Value of CRs, p-CREB Fold” value is recorded as 0.07; the “Mean Value of CRs, p-CREB Total Phospho” value was found to be 1.39; the “Mean Value of CRs, p-Erk Fold” value amounted to 0.08. Further, in the assay with AML blasts (setting [3]), the “Mean Value of CRs, p-Plcγ2 Total Phospho” value stood at 1.81 and the “Mean Value of CRs, p-S6 Fold” value was 0.14. In addition, the “Mean Value of CRs, p-Plcγ2 Fold” value with AML blasts (Study No. 1 sensitivity analysis, CR samples, negative = down regulation) is given as −0.14. Further, in the assay with AML blasts (setting [4]), the “Mean Value of NRs, p-Akt Fold” value amounted to 0.65; the “Mean Value of NRs, p-CREB Fold” value was 0.36; the “Mean Value of NRs, p-CREB Total Phospho” value is reported as 2.13; the “Mean Value of NRs, p-Erk Fold” value was 0.33. In the assay with AML blasts (setting [4]), the “Mean Value of NRs, p-Plcγ2 Total Phospho” value turned out to be 2.78 and the “Mean Value of NRs, p-S6 Fold” value is recorded as 0.83. Further, the “Mean Value of NRs, p-Plcγ2 Fold” value with AML blasts (Study No. 1 sensitivity analysis, NR samples incl. CRp, negative = down regulation) is on record as −0.08.

Source of the values: patent US8399206B2, “Methods for diagnosis, prognosis and methods of treatment” (Nodality, Inc., priority 2008, dated 2013).
